Measurements: the supplement of paper PMC11780869

System: Bacillus subtilis
Experiment: cleaved RNA product abundance (RNA/gDNA barcode ratio) relative to median wild-type variant (ratio to wild type); higher = more accumulation of the downstream cleavage product
Conditions: cleavage site: cggR-gapA (positions -7 to +36 mutated)
Outline: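 Oligos with a 9% error rate were used to build barcoded, mutagenized RNase Y cleavage-site windows within truncated aprE or tetM reporter mRNAs, which were integrated into the B. subtilis chromosome. Cultures were grown in LB at 37°C between OD600 0.0003 and 0.3. Cleaved RNA was gel-selected, reverse transcribed and barcode-sequenced, as were genomic DNA barcodes, and UMIs were collapsed. Cleaved product abundance is the scaled RNA:gDNA barcode ratio, with the median construct carrying the unmutated site as reference.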

[1] = experiment (reporter, strain, medium): exp 4a: truncated aprE reporter, strain BJT201 with 2% xylose (RNase J1 expressed)
[2] = experiment (reporter, strain, medium): exp 2b: truncated aprE reporter, strain BJT200
[3] = experiment (reporter, strain, medium): exp 6: tetM reporter, strain 168

| Sequence | cleaved RNA product abundance [1] | cleaved RNA product abundance [2] | cleaved RNA product abundance [3] |
| --- | --- | --- | --- |
| ACAGACGAAGGAGCCGCAAAGAAGTTAATAAGGGATGAATAATCCCTGAATATAAATATCTCTCACTTATTTAAA | 0.533 |  |  |
| ACAGACGAAGGAGCCGCAAAGAAGTTAATAAGGGATGAATAATCCCTTAATATAAATATCTCTCACTTATTTAAA | 0.519 | 0.572 |  |
| ACAGACGAAGGAGCCGCAAAGAAGTTAATAAGGGATGAATAATCCGTCAATATAAATATCTCTCACTTATTTAAA |  | 0.177 |  |
| ACAGACGAAGGAGCCGCAAAGAAGTTAATAAGGGATGAATAATCCTTCAATATAAATATCTCTCACTTATTTAAA | 0.237 | 0.185 |  |
| ACAGACGAAGGAGCCGCAAAGAAGTTAATAAGGGATGAATAATCGCTCAATATAAATATCTCTCACTTATTTAAA | 0.0788 |  |  |
| ACAGACGAAGGAGCCGCAAAGAAGTTAATAAGGGATGAATAATCTCTCAATATAAATATCTCTCACTTATTTAAA | 0.292 | 0.195 |  |
| ACAGACGAAGGAGCCGCAAAGAAGTTAATAAGGGATGAATAATGCCTCAATATAAATATCTCTCACTTATTTAAA | 0.124 | 0.121 |  |
| ACAGACGAAGGAGCCGCAAAGAAGTTAATAAGGGATGAATAATTCCTCAATATAAATATCTCTCACTTATTTAAA | 0.198 | 0.178 |  |
| ACAGACGAAGGAGCCGCAAAGAAGTTAATAAGGGATGAATAGTCCCTCAATATAAATATCTCTCACTTATTTAAA | 0.263 |  |  |
| ACAGACGAAGGAGCCGCAAAGAAGTTAATAAGGGATGAATATTCCCTCAATATAAATATCTCTCACTTATTTAAA | 0.279 | 0.246 |  |
| ACAGACGAAGGAGCCGCAAAGAAGTTAATAAGGGATGAATCATCCCTCAATATAAATATCTCTCACTTATTTAAA | 0.314 | 0.188 |  |
| ACAGACGAAGGAGCCGCAAAGAAGTTAATAAGGGATGAATGATCCCTCAATATAAATATCTCTCACTTATTTAAA | 0.284 |  |  |
| ACAGACGAAGGAGCCGCAAAGAAGTTAATAAGGGATGAATTATCCCTCAATATAAATATCTCTCACTTATTTAAA | 0.339 |  |  |
| ACAGACGAAGGAGCCGCAAAGAAGTTAATAAGGGATGACTAATCCCTCAATATAAATATCTCTCACTTATTTAAA | 0.308 |  |  |
| ACAGACGAAGGAGCCGCAAAGAAGTTAATAAGGGATGCATAATCCCTCAATATAAATATCTCTCACTTATTTAAA | 0.301 |  |  |
| ACAGACGAAGGAGCCGCAAAGAAGTTAATAAGGGATGTATAATCCCTCAATATAAATATCTCTCACTTATTTAAA | 0.322 |  |  |
| ACAGACGAAGGAGCCGCAAAGAAGTTAATAAGGGATTAATAATCCCTCAATATAAATATCTCTCACTTATTTAAA | 0.313 | 0.218 |  |
| ACAGACGAAGGAGCCGCAAAGAAGTTAATAAGGTATGAATAATCCCTCAATATAAATATCTCTCACTTATTTAAA | 0.15 | 0.0951 |  |
| ACAGACGAAGGAGCCGCAAAGAAGTTAATAAGTGATGAATAATCCCTCAATATAAATATCTCTCACTTATTTAAA | 0.129 | 0.167 |  |
| ACAGACGAAGGAGCCGCAAAGAAGTTAATAATGGATGAATAATCCCTCAATATAAATATCTCTCACTTATTTAAA | 0.137 | 0.104 |  |
| ACAGACGAAGGAGCCGCAAAGAAGTTAATAGGGGATGAATAATCCCTCAATATAAATATCTCTCACTTATTTAAA | 0.292 |  |  |
| ACAGACGAAGGAGCCGCAAAGAAGTTACAAAGGGATGAATAATCCCACAATATAAATATCTCTCACTTATTTAAA | 0.157 |  |  |
| ACAGACGAAGGAGCCGCAAAGAAGTTACAAAGGGATGAATAATCCCTCAATATAAATATCTCTCACTTATTTAAA | 0.257 |  |  |
| ACAGACGAAGGAGCCGCAAAGAAGTTACTAAAGGATGAATAATCCCTCAATATAAATATCTCTCACTTATTTAAA | 0.171 | 0.0999 |  |
| ACAGACGAAGGAGCCGCAAAGAAGTTACTAACGGATGAATAATCCCTCAATATAAATATCTCTCACTTATTTAAA | 0.162 | 0.0838 |  |
| ACAGACGAAGGAGCCGCAAAGAAGTTACTAAGGAATGAATAATCCCTCAATATAAATATCTCTCACTTATTTAAA | 0.143 | 0.0952 |  |

| Sequence | cleaved RNA product abundance [1] | cleaved RNA product abundance [2] | cleaved RNA product abundance [3] |
| --- | --- | --- | --- |
| ACAGACGAAGGAGCCGCAAAGAAGTTACTAAGGCATGAATAATCCCTCAATATAAATATCTCTCACTTATTTAAA | 0.112 |  |  |
| ACAGACGAAGGAGCCGCAAAGAAGTTACTAAGGGAAGAATAATCCCTCAATATAAATATCTCTCACTTATTTAAA | 0.138 |  |  |
| ACAGACGAAGGAGCCGCAAAGAAGTTACTAAGGGACGAATAATCCCTCAATATAAATATCTCTCACTTATTTAAA |  | 0.131 |  |
| ACAGACGAAGGAGCCGCAAAGAAGTTACTAAGGGATAAATAATCCCTCAATATAAATATCTCTCACTTATTTAAA | 0.224 | 0.206 |  |
| ACAGACGAAGGAGCCGCAAAGAAGTTACTAAGGGATCAATAATCCCTCAATATAAATATCTCTCACTTATTTAAA | 0.208 |  |  |
| ACAGACGAAGGAGCCGCAAAGAAGTTACTAAGGGATGAACAATCCCTCAATATAAATATCTCTCACTTATTTAAA | 0.266 |  |  |
| ACAGACGAAGGAGCCGCAAAGAAGTTACTAAGGGATGAATAAACCCTCAATATAAATATCTCTCACTTATTTAAA | 0.14 |  |  |
| ACAGACGAAGGAGCCGCAAAGAAGTTACTAAGGGATGAATAATCACTCAATATAAATATCTCTCACTTATTTAAA | 0.177 |  |  |
| ACAGACGAAGGAGCCGCAAAGAAGTTACTAAGGGATGAATAATCCCACAATATAAATATCTCTCACTTATTTAAA | 0.153 | 0.126 |  |
| ACAGACGAAGGAGCCGCAAAGAAGTTACTAAGGGATGAATAATCCCTAAATATAAATATCTCTCACTTATTTAAA | 0.253 |  |  |
| ACAGACGAAGGAGCCGCAAAGAAGTTACTAAGGGATGAATAATCCCTCAAAATAAATATCTCTCACTTATTTAAA | 0.288 |  |  |
| ACAGACGAAGGAGCCGCAAAGAAGTTACTAAGGGATGAATAATCCCTCAATATAAATATCTCTCACTTATTTAAA | 0.314 | 0.219 | 0.275 |
| ACAGACGAAGGAGCCGCAAAGAAGTTACTAAGGGATGAATAATCCCTCAATATATATATCTCTCACTTATTTAAA | 0.346 |  |  |
| ACAGACGAAGGAGCCGCAAAGAAGTTACTAAGGGATGAATAATCCCTCATTATAAATATCTCTCACTTATTTAAA | 0.342 | 0.218 |  |
| ACAGACGAAGGAGCCGCAAAGAAGTTACTAAGGGATGAATAATCCCTCGATATAAATATCTCTCACTTATTTAAA | 0.227 |  |  |
| ACAGACGAAGGAGCCGCAAAGAAGTTACTAAGGGATGAATAATCGCTCAATATAAATATCTCTCACTTATTTAAA | 0.0864 | 0.0765 |  |
| ACAGACGAAGGAGCCGCAAAGAAGTTACTAAGGGATGAATAATCTCTCAATATAAATATCTCTCACTTATTTAAA | 0.22 | 0.149 |  |
| ACAGACGAAGGAGCCGCAAAGAAGTTACTAAGGGATGAATAATTCCTCAATATAAATATCTCTCACTTATTTAAA | 0.24 |  |  |
| ACAGACGAAGGAGCCGCAAAGAAGTTACTAAGGGATGAATACTCCCTCAATATAAATATCTCTCACTTATTTAAA |  | 0.107 |  |
| ACAGACGAAGGAGCCGCAAAGAAGTTACTAAGGGATGAATTATCCCTCAATATAAATATCTCTCACTTATTTAAA | 0.25 | 0.199 |  |
| ACAGACGAAGGAGCCGCAAAGAAGTTACTAAGGGATGATTAATCCCTCAATATAAATATCTCTCACTTATTTAAA |  | 0.155 |  |
| ACAGACGAAGGAGCCGCAAAGAAGTTACTAAGGGATGCATAATCCCTCAATATAAATATCTCTCACTTATTTAAA | 0.235 |  |  |
| ACAGACGAAGGAGCCGCAAAGAAGTTACTAAGGGATGGATAATCCCTCAATATAAATATCTCTCACTTATTTAAA | 0.208 |  |  |
| ACAGACGAAGGAGCCGCAAAGAAGTTACTAAGGGATTAATAATCCCTCAATATAAATATCTCTCACTTATTTAAA | 0.299 | 0.169 |  |
| ACAGACGAAGGAGCCGCAAAGAAGTTACTAAGGGGTGAATAATCCCTCAATATAAATATCTCTCACTTATTTAAA |  | 0.144 |  |
| ACAGACGAAGGAGCCGCAAAGAAGTTACTAAGGTATGAATAATCCCTCAATATAAATATCTCTCACTTATTTAAA | 0.15 | 0.103 | 0.0813 |
